Molecular target: the molecule itself
Assay: crystal structure; Se-Met MJ0391 (28 mg/mL), sitting-drop vapor diffusion at 293 K, 50%(v/v) PEG-400, 0.1 M MES pH 6.0; MAD, refined at 2.3 Å; two NCS molecules in the asymmetric unit, tetramer generated by the crystallographic 2-fold axis

B1: hypothetical protein MJ0391 from Methanocaldococcus jannaschii (putative CbiT) (enzyme, Methanocaldococcus jannaschii DSM 2661)
chain: MKYMIPDEEFIRREGVPITKEEIRAVSIGKLNLNKDDVVVDVGCGSGGMTVEIAKRCKFVYAIDYLDGAIEVTKQNLAKFNIKNCQIIKGRAEDVLDKLEFNKAFIGGTKNIEKIIEILDKKKINHIVANTIVLENAAKIINEFESRGYNVDAVNVFISYAKKIPSGHMFLAKNPITIIKAVR
modifications: selenomethionine in place of methionine (Se-Met protein; Mse4 and Mse169 are printed)
notes: MJ0391 protein, putative CbiT (cobalt-precorrin-7 C15-methyltransferase / C12-decarboxylase), Methanocaldococcus jannaschii DSM 2661; gene amplified from genomic DNA and cloned into pET-21a; 183 amino acid residues and 21 kDa per monomer; residues 1-3 are not seen in the final model
  stoichiometry N: 4
